From the supplement of paper PMC7877785
± gives the uncertainty stated by the source.

Assay: self-splicing fitness, log relative to wild type (ln ratio); higher = more splicing; Tetrahymena group I intron in knt gene, E. coli kanamycin selection, DiMSum; sequences stand for … in CUCUCU…GGAGGGAAAAGUUAUCAGGCAUGCACCUGGUAGCUAGUCUUUAAACCAAUAGAUUGCAUCGGUUUAAAAGGCAAGACCGUCAAAUUGCGGGAAAGGGGUCAACAGCCGUUCAGUACCAAGUCUCAGGGGAAACUUUGAGAUGGCCUUGCAAAGGGUAUGGUAAUAAGCUGACGGACAUGGUCCUAACCACGCAGCCAAGUCCUAAGUCAACAGAUCUUCUGUUGAUAUGGAUGCAGUUCACAGACUAAAUGUCGGUCGGGGAAGAUGUAUUCUUCUCAUAAGAUAUAGUCGGACCUCUCCUUAAUGGGAGCUAGCGGAUGAAGUGAUGCAACACUGGAGCCGCUGGGAACUAAUUUGUAUGCGAAAGUAUAUUGAUUAGUUUUGGAGUACUCGUGGUCG
Procedure, shortened: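 Library with all eight P1ex-region intron nucleotides randomised, intron inside the knt kanamycin-resistance gene on pET-22b(+), in E. coli BL21(DE3). Cells grew overnight at 37°C or 30°C on LB agar with or without 25 μg/mL kanamycin (plus 100 μg/mL carbenicillin, 50 μM IPTG, 0.2% rhamnose), in six replicate transformations. Pooled colonies were amplicon-sequenced on Illumina HiSeq 2500. DiMSum fitness is the error-weighted combination of wild-type-normalised replicate fold changes, kanamycin versus none.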

| Sequence | self-splicing fitness (ln) (30 °C) | self-splicing fitness (ln) (37 °C) |
| --- | --- | --- |
| UGAUAGCAAUAUUACGCUCG | -0.235 ± 0.13 | 0.0592 ± 0.21 |
| CAACAGCAAUAUUACGUGCC | -3.31 ± 0.2 | -1.59 ± 0.15 |
| UAUGAGCAAUAUUACGAACA | -2.47 ± 0.24 | -0.662 ± 0.14 |
| GGGGAGCAAUAUUACGCACG | -1.89 ± 0.17 | -1.44 ± 0.24 |
| GGGUAGCAAUAUUACGUCAA | -0.501 ± 0.13 | -0.61 ± 0.21 |
| AGCUAGCAAUAUUACGCCCG |  | -0.486 ± 0.32 |
| UGAAAGCAAUAUUACGUUAC | -3.44 ± 0.25 | -2.35 ± 0.21 |
| CAUCAGCAAUAUUACGGAAC | -2.6 ± 0.19 | -2.54 ± 0.36 |
| GCCGAGCAAUAUUACGGUUU | -2.38 ± 0.098 | -0.815 ± 0.095 |
| AUGAAGCAAUAUUACGCCCC | 0.963 ± 0.19 | 0.00961 ± 0.23 |
| CAGUAGCAAUAUUACGGGAU | -4.35 ± 0.31 | -3.18 ± 0.16 |
| UGUUAGCAAUAUUACGGUUU | -2.82 ± 0.15 | -2.02 ± 0.15 |
| ACCCAGCAAUAUUACGGGCC | -3.49 ± 0.18 | -1.45 ± 0.14 |
| UAAAAGCAAUAUUACGUCCU | -0.564 ± 0.095 | 0.00684 ± 0.13 |
| CCAUAGCAAUAUUACGAGAU | -3.81 ± 0.35 | -2.12 ± 0.21 |
| CAGUAGCAAUAUUACGAACG | -0.0483 ± 0.12 | -0.375 ± 0.14 |
| UGGAAGCAAUAUUACGCAUA | -1.68 ± 0.17 | -0.329 ± 0.14 |
| CUUUAGCAAUAUUACGUCAU | -4.6 ± 0.39 | -2.13 ± 0.23 |
| ACGGAGCAAUAUUACGGGUA | -2.34 ± 0.25 | -3.02 ± 0.32 |
| GGGCAGCAAUAUUACGAUGG | -3.22 ± 0.35 |  |
| UAGAAGCAAUAUUACGACUG | -0.418 ± 0.083 | -0.0265 ± 0.1 |
| GGAAAGCAAUAUUACGCACC | -1.43 ± 0.21 |  |
| CUGGAGCAAUAUUACGCUUU | -3.02 ± 0.32 | -3.22 ± 0.47 |
| GAUGAGCAAUAUUACGUCAU | -3.15 ± 0.32 | -2.99 ± 0.32 |
| AAUGAGCAAUAUUACGCCGA | -2.34 ± 0.3 | -1.75 ± 0.43 |

| Sequence | self-splicing fitness (ln) (30 °C) | self-splicing fitness (ln) (37 °C) |
| --- | --- | --- |
| CAAAAGCAAUAUUACGUUCC | -2.34 ± 0.33 | -2.17 ± 0.36 |
| GUGAAGCAAUAUUACGGUCA | -0.465 ± 0.11 | 0.46 ± 0.12 |
| CGUCAGCAAUAUUACGGCAA | -1.75 ± 0.14 | -1.89 ± 0.13 |
| GCAUAGCAAUAUUACGUAAA | -2.43 ± 0.074 | -1.05 ± 0.08 |
| CAUAAGCAAUAUUACGCAAU | -3.2 ± 0.25 | -2.59 ± 0.36 |
| AUGUAGCAAUAUUACGCUGA | -1.93 ± 0.15 | -1.29 ± 0.18 |
| ACCGAGCAAUAUUACGACUA | -2.66 ± 0.19 | -1.7 ± 0.17 |
| GAGCAGCAAUAUUACGAUAU | -2.17 ± 0.13 | -1.17 ± 0.15 |
| UUUAAGCAAUAUUACGGUUA | -1.35 ± 0.12 | -0.505 ± 0.1 |
| CUGAAGCAAUAUUACGAUUG | 0.168 ± 0.099 | -0.000234 ± 0.12 |
| AAGCAGCAAUAUUACGGAAG | -3.51 ± 0.15 | -1.35 ± 0.14 |
| AAAAAGCAAUAUUACGUGAG | -0.91 ± 0.056 | -0.523 ± 0.092 |
| CAUUAGCAAUAUUACGCCCG | 0.404 ± 0.13 | 0.579 ± 0.17 |
| GGUUAGCAAUAUUACGGACG | 0.908 ± 0.17 | -0.388 ± 0.22 |
| ACCAAGCAAUAUUACGACAG | -1.81 ± 0.078 | -1.82 ± 0.11 |
| AGGAAGCAAUAUUACGGCAG | -2.3 ± 0.31 | -0.552 ± 0.32 |
| UAGAAGCAAUAUUACGGGAA | -1.96 ± 0.25 | -2.3 ± 0.29 |
| UAGGAGCAAUAUUACGGUAA | -3.41 ± 0.34 | -2.26 ± 0.31 |
| CCAAAGCAAUAUUACGAUUC | -3 ± 0.31 | -1.71 ± 0.34 |
| GCGGAGCAAUAUUACGCGUG | -2.56 ± 0.29 | -1.85 ± 0.29 |
| CUUCAGCAAUAUUACGGGCG | -0.584 ± 0.076 | -0.302 ± 0.098 |
| UCCAAGCAAUAUUACGAGAU | -3.54 ± 0.18 |  |
| ACUUAGCAAUAUUACGUCGC |  | -1.22 ± 0.26 |
| AAGCAGCAAUAUUACGGGGG | -3.26 ± 0.22 | -1.92 ± 0.16 |
| UACCAGCAAUAUUACGUAUC | -2.55 ± 0.15 | -0.118 ± 0.12 |

| Sequence | self-splicing fitness (ln) (30 °C) | self-splicing fitness (ln) (37 °C) |
| --- | --- | --- |
| UCUGAGCAAUAUUACGCGAA |  | -1.8 ± 0.25 |
| CCUCAGCAAUAUUACGUAUU | -4.06 ± 0.24 | -2.61 ± 0.21 |
| AACCAGCAAUAUUACGUCGU | -1.26 ± 0.046 | -0.25 ± 0.058 |
| GUCGAGCAAUAUUACGUUCA | -0.837 ± 0.084 | -0.462 ± 0.086 |
| AUACAGCAAUAUUACGAGCU | -1.51 ± 0.1 | -1.26 ± 0.11 |
| UACGAGCAAUAUUACGGUUC | -4.18 ± 0.19 | -2.5 ± 0.15 |
| CCACAGCAAUAUUACGAAGG | -3.62 ± 0.13 | -2.92 ± 0.16 |
| GCCAAGCAAUAUUACGUCCG | -2.19 ± 0.33 | -1.6 ± 0.32 |
| UACUAGCAAUAUUACGCAGU | -3.26 ± 0.35 | -3.09 ± 0.34 |
| UCAAAGCAAUAUUACGGCCA | -0.546 ± 0.13 | -0.278 ± 0.11 |
| UUAGAGCAAUAUUACGGCCC | -3.84 ± 0.36 | -1.52 ± 0.32 |
| AUUCAGCAAUAUUACGAGUU | -2.76 ± 0.16 | -1.39 ± 0.13 |
| AGCUAGCAAUAUUACGGUGA | -1.81 ± 0.2 | -0.51 ± 0.2 |
| GUAAAGCAAUAUUACGGCCU | -0.0192 ± 0.12 | 0.105 ± 0.12 |
| GGCGAGCAAUAUUACGCUGC | -2.58 ± 0.39 | -0.462 ± 0.37 |
| UACAAGCAAUAUUACGUGGG | -3.82 ± 0.21 | -3.3 ± 0.24 |
| UCCAAGCAAUAUUACGGACA | -2.37 ± 0.11 | -0.757 ± 0.084 |
| CUGUAGCAAUAUUACGUGGG | -3.78 ± 0.22 | -2.05 ± 0.18 |
| UGGUAGCAAUAUUACGGCCA | -2.07 ± 0.3 | -1.94 ± 0.45 |
| ACCCAGCAAUAUUACGUUUC | -2.36 ± 0.062 | -1.35 ± 0.082 |
| GCAUAGCAAUAUUACGGAGU | -3.52 ± 0.14 | -1.86 ± 0.11 |
| GUCAAGCAAUAUUACGGGUG | -4.19 ± 0.24 | -2.73 ± 0.17 |
| UCUAAGCAAUAUUACGUCCU | -2.72 ± 0.28 | -0.964 ± 0.21 |
| GCGAAGCAAUAUUACGGGCU | -2.68 ± 0.19 | -1.88 ± 0.17 |
| UAACAGCAAUAUUACGUCCC | -2.98 ± 0.34 | -1.38 ± 0.27 |

| Sequence | self-splicing fitness (ln) (30 °C) | self-splicing fitness (ln) (37 °C) |
| --- | --- | --- |
| CAAGAGCAAUAUUACGAUCU |  | -1.79 ± 0.31 |
| AGGAAGCAAUAUUACGCCGG | -0.87 ± 0.17 | -0.612 ± 0.23 |
| GAGAAGCAAUAUUACGAGAA | -2.75 ± 0.47 | -0.703 ± 0.35 |
| AUGUAGCAAUAUUACGACAG | 0.106 ± 0.081 | 0.358 ± 0.095 |
| AAACAGCAAUAUUACGCAAA | -2.87 ± 0.12 | -1.75 ± 0.1 |
| AGAGAGCAAUAUUACGCACG | -2.18 ± 0.38 |  |
| GACGAGCAAUAUUACGGUUG | -2.82 ± 0.13 | -1.76 ± 0.13 |
| UCCUAGCAAUAUUACGUCGC | -4.08 ± 0.42 | -2.58 ± 0.36 |
| GGCUAGCAAUAUUACGCACU | -0.665 ± 0.1 | -0.592 ± 0.1 |
| ACGAAGCAAUAUUACGAGUC | -4.22 ± 0.24 | -2.21 ± 0.19 |
| AUAGAGCAAUAUUACGAGCU | -1.71 ± 0.18 | -1.15 ± 0.16 |
| GUUUAGCAAUAUUACGCAUA | -1.69 ± 0.18 | -1.19 ± 0.19 |
| UAUCAGCAAUAUUACGGGUG | -0.736 ± 0.044 | -0.102 ± 0.064 |
| CUUGAGCAAUAUUACGGCUG | -1.55 ± 0.14 | -1.46 ± 0.19 |
| UUGAAGCAAUAUUACGCUCC | -4.04 ± 0.29 | -3.02 ± 0.31 |
| AGAGAGCAAUAUUACGAGGA | -2.71 ± 0.4 | -2.21 ± 0.34 |
| UAUGAGCAAUAUUACGAUCC |  | -3.06 ± 0.47 |
| UAACAGCAAUAUUACGUGUC | -4.05 ± 0.14 | -2.35 ± 0.13 |
| GCCGAGCAAUAUUACGCAGG | -3.43 ± 0.25 | -4.04 ± 0.42 |
| AAUAAGCAAUAUUACGUACC | -0.867 ± 0.14 | -0.89 ± 0.15 |
| AGCAAGCAAUAUUACGGCGC | -0.695 ± 0.095 | 0.164 ± 0.16 |
| GGCUAGCAAUAUUACGUGAC | -1.84 ± 0.14 | -1.02 ± 0.16 |
| CCUGAGCAAUAUUACGAUGU | -1.94 ± 0.084 | -1.71 ± 0.098 |
